Assay results reported in patent US20150160214A1, “Quantitation of Cellular Adhesion Dynamics Across Immobilized Receptors Under Rheological Shear Flow” (Mayo Foundation for Medical Education and Research, priority 2013, published 2015).

Key:
[1] = Conformational and thermodynamic classification of A1 domain variants (urea and thermal denaturation, CD, FL, ANS); assay type: physicochemical; conditions: for Thermodynamic stability: urea and thermal denaturation
Procedure: Circular dichroism measurements were performed on a Model No. 420C circular-dichroism spectrometer (Aviv Biomedical, Inc., Lakewood Township, N.J.). All fluorescence (FL) measurements were performed on a Fluorolog3 spectrofluorometer (HORIBA Jobin-Yvon, Edison, N.J.) equipped with a Model No. LF1-3751 temperature controller (Wavelength Electronics Inc., Bozeman, Mont.). Near- and far-ultraviolet (UV) circular dichroism (CD), intrinsic protein FL, and ANS (8-anilino naphthalene sulfonic acid) […] spectra were determined as described in Tischer et al. (19). Urea denaturation (monitored by far-UV CD) and thermal denaturation (monitored by far-UV CD, intrinsic protein FL, and ANS FL) were performed and analyzed as previously described (19,20). Acrylamide quenching of intrinsic tryptophan fluorescence was performed and analyzed as described in Tischer et al. (19). All spectra were collected at 20° C.
The effects of mutations on the thermodynamic stability of A1 (18) was determined and a framework that incorporated partial unfolding as a means for enhancing the binding affinity of A1 for GPIba was developed (17). Initially, urea-temperature phase diagram method were used for assessing the reversible thermodynamics of unfolding at various temperatures (18,21), and more recently thermal denaturations were used to assess kinetic irreversibility (20,22). The inventor employed these methods using a variety of spectroscopic observables that assess the conformation of these A1 domain variants as a function of temperature and urea.
The observables included the following: (1) Far-UV CD to assess secondary structure content; (2) Near-UV CD to assess tertiary structure content; (3) Intrinsic protein FL to assess solvent exposure of tyrosine and tryptophan residues; (4) Acrylamide quenching of tryptophan FL to assess local solvent exposure of the single tryptophan residue; and (5) Binding of the molten globule indicator-dye, ANS, to assess exposure of hydrophobic surface area.
In total, these studies have provided metrics that are able to classify the conformation of A1 into three types, based on biophysical spectroscopy, as follows:
The type 2B mutations R1306Q and I1309V and the type 2M mutation G1324S have previously been characterized in this conformational class (18). In addition, R1308L and I1372S also belong to this class.
The type 2M mutation A1437T and the type 2B mutation R1341Q belong to this class.
The type 2M mutations F1369I, E1359K, I1425F, S1285F, and R1374H, and the type 2B mutations H1268D, P1337L, V1316M, and V1314D, belong to this class.

[2] = target: T1, platelet GPIbα (Homo sapiens, UniProt P07359); assay: Platelet pause times on surface-captured A1 domain variants, parallel plate flow chamber (Table 4, Example 3); assay type: cell-based; set-up: key to Pause Time 1500 s^−1 (s): NB = “No Binding.”; conditions: for Platelet binding to surface-captured A1 domain variant: any shear rate; for Pause Time 1500 s^−1 (s): shear rate 1500 s^−1, mean ± std. dev., number of measurements in parentheses, NB = No Binding
T1 construct: endogenous in cells; host or cells: platelets in citrated whole blood of normal healthy volunteer donors
Procedure: The determination and analysis of platelet pause times and instantaneous translocation velocities over surface captured A1 and RCAM A1 was performed as previously described (Tischer:2013). Here, the inventor used the Cellix Mims Evo syringe pump controlled by VenaFluxAssay (www.cellixltd.com). Vena8™ CGS biochips were custom designed with 800 μm width by 80 μm height microchannels bonded to glass slides with a Cu^2+ chelated PEG surface serviced by Microsurfaces Inc. (www.proteinslides.com/histag.html) to which the A1 and RCAM A1 in TBS were captured by the 6×His-Tag at a total concentration of 5 μM. Citrated whole blood was obtained from the informed consent of healthy volunteer donors with approval from the Mayo Clinic Institutional Review Board and 100 μL was perfused over the surface captured A1 domains at 700 s^−1. The shear was increased or decreased in a stepwise manner to measure the dynamics of platelet adhesion at high and low shear. After allowing the flow chamber to equilibrate for 50 s at each shear rate, 1 min movies were recorded at 24 frames per second in phase contrast at 200× magnification with 2×2 pixel binning on a Zeiss AxioCam Mrm camera (6.45 μm/px) attached to a Zeiss Axio Observer.D1 inverted microscope. Tracking analysis was performed using MediaCybernetics ImagePro® Premier (www.mediacy.com/index.aspx?page=IP\_Premier) The distance travelled in the direction of flow was calculated from the coordinate data for each platelet as a function of time using √{square root over ((xt−x0)^2)}, where x0 is the coordinates of a platelet on the first frame of the movie and xt is the coordinate on subsequent frames of the movie. These trajectories were differentiated into instantaneous velocities using a Savitzky-Golay algorithm (Savitzky:1964) with a five data point window size and a second order polynomial implemented into a Mathematica (www.wolfram.com/mathematica) notebook written in our lab. Trajectories were retained for statistical analysis if the platelet was present for ≧1 s and travelled a total distance greater than 1 Distance travelled in pixels (px) was converted to (μm) using 6.45 μm/px*2/200=0.0645 μm/px. Pause times were determined by the amount of time (sec) a platelets velocity was 0±4 px/s≅0±0.23 μm/s, within the noise. Data are reported as mean velocities and pause times attained by individual platelets averaged over all platelets analyzed. Integral analysis of the cumulative pause time histogram gives the survival fraction, equation (24).
The rheological interaction of platelets with A1 domain variants harboring type 2M and type 2B mutations was studied using recently developed flow-chamber methods (19). The A1 domains ([…]) were immobilized on Vena8™ biochips (Cellix, Dublin, Ireland) coated with a Cu^2+-chelated poly-ethylene-glycol surface serviced by MicroSurfaces, Inc. (Englewood, N.J.) via the 6×His-Tag, enabling the preservation of the structural properties of the domain in solution and its concomitant effects on platelet adhesion under rheological shear flow. One-hundred microliters of citrated whole blood, obtained from the informed consent of normal healthy volunteer donors with approval from the Mayo Clinic Institutional Review Board (Rochester, Minn.), was perfused at a shear rate of 800 s^−1 followed by Tris-buffered saline. Platelets translocating on the surface-captured domains were filmed at 24 frames/s for 1 min at logarithmic intervals of the shear rate. Coordinates obtained from tracking analysis of the resulting movies were processed using the inventor recently developed statistical analytics for the quantification of cellular adhesion dynamics across immobilized receptors under rheological shear flow (supra). Biochips lacking the surface-captured A1 domain were completely inert to platelets.

| Substance | Platelet adhesion function (gain or loss of function) [2] | Platelet binding to surface-captured A1 domain variant [2] | Pause Time 1500 s^−1 (s) [2] | Conformational class (in words) [1] | Thermodynamic stability [1] | A1 domain Conformation [1] |
| --- | --- | --- | --- | --- | --- | --- |
| H1268D: vWF A1 domain variant with type 2B vWD mutation H1268D | – | – | – | significantly reduced tertiary structure content | – | – |
| H1308L: vWF A1 domain variant with type 2B vWD mutation, printed H1308L in Table 4, R1308L elsewhere | – | – | – | global native fold | – | N (N = “Native” (native structure with varying thermodynamic stability)) |
| I1309V: vWF A1 domain variant with type 2B vWD mutation I1309V | – | – | – | global native fold | – | N (N = “Native” (native structure with varying thermodynamic stability)) |
| I1372S: vWF A1 domain variant with type 2B vWD mutation I1372S | – | – | – | global native fold | – | N (N = “Native” (native structure with varying thermodynamic stability)) |
| R1306Q: vWF A1 domain variant with type 2B vWD mutation R1306Q | – | – | – | global native fold | – | N (N = “Native” (native structure with varying thermodynamic stability)) |
| R1341Q: vWF A1 domain variant with type 2B vWD mutation R1341Q | – | – | – | reduced secondary structure content | low stability | – |
| V1314D: vWF A1 domain variant with type 2B vWD mutation V1314D | – | – | – | significantly reduced tertiary structure content | – | – |
| V1316M: vWF A1 domain variant with type 2B vWD mutation V1316M | – | – | – | significantly reduced tertiary structure content | – | – |

Second part, led by results:

| Platelet adhesion function (gain or loss of function) [2] | Platelet binding to surface-captured A1 domain variant [2] | Pause Time 1500 s^−1 (s) [2] | Substance | Conformational class (in words) [1] | Thermodynamic stability [1] | A1 domain Conformation [1] |
| --- | --- | --- | --- | --- | --- | --- |
| mild loss-of-function | – | – | A1437T: vWF A1 domain variant with type 2M vWD mutation A1437T | reduced secondary structure content | low stability | – |
| complete loss-of-function | did not bind platelets at any shear rate | NB (2) | E1359K: vWF A1 domain variant with type 2M vWD mutation E1359K | significantly reduced tertiary structure content | – | – |
| complete loss-of-function | did not bind platelets at any shear rate | NB (2) | F1369I: vWF A1 domain variant with type 2M vWD mutation F1369I | significantly reduced tertiary structure content | – | – |
| – | – | NB (3) | G1324S: vWF A1 domain variant with type 2M vWD mutation G1324S | global native fold | – | N (N = “Native” (native structure with varying thermodynamic stability)) |
| – | did not bind platelets at any shear rate | NB (2) | I1425F: vWF A1 domain variant with type 2M vWD mutation I1425F | significantly reduced tertiary structure content | – | – |
| extreme type 2B gain-of-function | – | – | P1337L: vWF A1 domain variant with type 2B vWD mutation P1337L | significantly reduced tertiary structure content | – | – |
| – | did not bind platelets at any shear rate | NB (2) | R1374H: vWF A1 domain variant with type 2M vWD mutation R1374H | significantly reduced tertiary structure content | – | – |
| – | did not bind platelets at any shear rate | NB (2) | S1285F: vWF A1 domain variant with type 2M vWD mutation S1285F | significantly reduced tertiary structure content | – | – |
